Test results: paper PMC8449271 (The Journal of Biological Chemistry, 2021)

B1: Cryptococcus neoformans bifunctional GARs/AIRs (phosphoribosyl-glycinamide synthetase / phosphoribosyl-aminoimidazole synthetase), recombinant His-tagged (enzyme, UniProt J9VYP5 1-802, looked up)
chain: MPEITAFPQPKSDLSILLLGAGGREHALAFKLAQSSRVARIVVCPGNGGTALMGGKVSNLALPWGAPPAFRSIVEWAQKENIDLVVPGPEQPLVDGVEGAFKKVGIPVFGPSPAAAMLEGSKSLSKEFMARHNIPTAAFRSFTSTQYEDAVAYIKSKPFTSGRSVIKASGLAAGKGVLIPETDEEAFAALKSVMVDKEFGDAGDEVVVEEYLSGPEISVLAFSDGYTIVPMPAAQDHKRIGEGDTGLNTGGMGAYAPAPIATKEIMERCVKDVLEPTIKGMREDGYPFVGMLFTGFMITADGPRVLEYNVRFGDPETQALMLLLDEQTDLAEVLLACVERRLDSIKLGYKQGYAVSVVLASEGYPGSYPKGLPMTLNPTPEGVEVFHAGTKRSDNVTVTDGGRVLAVCASAPTLRAAVDLAYSGISQISFQGQTFRRDIAYRALSSEPPAEPKGLTYAAAGVSVDAGNDLVEAIKPVVKATRRPGADSDIGGFGGAFDLAKAGYKDPILVSGTDGVGTKLRVALDHGKHNTVGIDLVAMSVNDLIVQGAEPLYFLDYYACSKLDVPVAADVITGIAEGCLQAGCALIGGETAEMPGMYHGDDYDLAGFAVGVVERAQILPTPDIASGDVLLALSSSGPHSNGFSLIRKIVSLSNLSLHDTAPWDKNTSVGDALLTPTKVYIKPLLPGIKSGLYKGMSHITGGGFTENIPRIFSSASNLGVKLDLTSYSLPAIWKWLMRAGNVEAKEMVRTFNCGVGMIIIVAKDKADAALSSLKENGEEAWVIGEVQEKKGVEYVGLDKFGL
B2: Cryptococcus neoformans AIRs single enzymatic unit (phosphoribosyl-aminoimidazole synthetase), recombinant His-tagged (domain or fragment)
chain: GFGGAFDLAKAGYKDPILVSGTDGVGTKLRVALDHGKHNTVGIDLVAMSVNDLIVQGAEPLYFLDYYACSKLDVPVAADVITGIAEGCLQAGCALIGGETAEMPGMYHGDDYDLAGFAVGVVERAQILPTPDIASGDVLLALSSSGPHSNGFSLIRKIVSLSNLSLHDTAPWDKNTSVGDALLTPTKVYIKPLLPGIKSGLYKGMSHITGGGFTENIPRIFSSASNLGVKLDLTSYSLPAIWKWLMRAGNVEAKEMVRTFNCGVGMIIIVAKDKADAALSSLKENGEEAWVIGEVQEKKGVEYVGLDKFGL
B3: Cryptococcus neoformans GARs single enzymatic unit (phosphoribosyl-glycinamide synthetase), recombinant His-tagged (domain or fragment)
chain: MPEITAFPQPKSDLSILLLGAGGREHALAFKLAQSSRVARIVVCPGNGGTALMGGKVSNLALPWGAPPAFRSIVEWAQKENIDLVVPGPEQPLVDGVEGAFKKVGIPVFGPSPAAAMLEGSKSLSKEFMARHNIPTAAFRSFTSTQYEDAVAYIKSKPFTSGRSVIKASGLAAGKGVLIPETDEEAFAALKSVMVDKEFGDAGDEVVVEEYLSGPEISVLAFSDGYTIVPMPAAQDHKRIGEGDTGLNTGGMGAYAPAPIATKEIMERCVKDVLEPTIKGMREDGYPFVGMLFTGFMITADGPRVLEYNVRFGDPETQALMLLLDEQTDLAEVLLACVERRLDSIKLGYKQGYAVSVVLASEGYPGSYPKGLPMTLNPTPEGVEVFHAGTKRSDNVTVTDGGRVLAVCASAPTLRAAVDLAYSGISQISFQGQTFRRDIAYRALSSEPPAEP

Target: the molecule itself
Assay: mass photometry

Protein	stoichiometry N
B1	2
B2	2
B3	2
